Reference: patent US20200283478A1 (Genentech, published 2020)
Bridge positions count the residues as written; N and C are the ends. Square brackets hold non-standard residues; d marks the D form. Primed or numbered codes have the meaning given here. hArg = N=C(N)NCCCC[C@H](N)C(=O)O; Hyp′ = 3-hydroxyproline

How the values were obtained:
[1] = target: T1, proprotein convertase subtilisin/kexin type 9 (PCSK9) (human, UniProt Q8NBP7 31-692); experiment: TR-FRET competition (Table 11)
T1 construct: His-tagged full-length PCSK9 in TR-FRET and SPR, biotinylated in phage ELISA; secreted protein is autoprocessed (prodomain plus catalytic/CRD chain starting at S153); also called rec.PCSK9; His-PCSK9
T1 sequence (Q8NBP7 other isoform, or with tags, fused parts or gaps limits assumed): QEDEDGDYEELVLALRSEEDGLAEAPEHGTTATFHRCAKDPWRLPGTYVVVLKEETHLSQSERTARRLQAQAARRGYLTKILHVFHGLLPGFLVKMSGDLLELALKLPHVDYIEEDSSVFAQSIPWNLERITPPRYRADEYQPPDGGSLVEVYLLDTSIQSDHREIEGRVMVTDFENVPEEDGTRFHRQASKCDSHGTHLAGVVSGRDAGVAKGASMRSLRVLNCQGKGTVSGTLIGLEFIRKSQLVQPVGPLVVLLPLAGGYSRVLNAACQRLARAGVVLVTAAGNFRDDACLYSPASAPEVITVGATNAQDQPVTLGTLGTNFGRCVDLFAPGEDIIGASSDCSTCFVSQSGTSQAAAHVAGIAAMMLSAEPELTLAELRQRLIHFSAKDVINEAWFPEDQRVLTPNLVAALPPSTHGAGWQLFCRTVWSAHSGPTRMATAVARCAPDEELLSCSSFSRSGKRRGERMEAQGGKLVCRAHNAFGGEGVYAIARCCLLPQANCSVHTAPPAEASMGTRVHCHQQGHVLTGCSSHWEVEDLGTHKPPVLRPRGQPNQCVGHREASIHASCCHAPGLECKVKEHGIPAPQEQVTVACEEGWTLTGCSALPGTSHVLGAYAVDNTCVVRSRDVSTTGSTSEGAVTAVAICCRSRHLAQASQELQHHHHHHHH

[2] = target: T2, His-tagged, full-length human PCSK9 (proprotein convertase subtilisin/kexin type 9) (human, UniProt A8T644 31-152; Q8NBP7 153-692); experiment: TR-FRET competition; His-PCSK9 with EGF(A)-Fc as competitor ligand
T2 construct: also called His-PCSK9; C-terminal (His)8-tagged PCSK9
T2 sequence (A8T644 31-152, chain 1 of 2): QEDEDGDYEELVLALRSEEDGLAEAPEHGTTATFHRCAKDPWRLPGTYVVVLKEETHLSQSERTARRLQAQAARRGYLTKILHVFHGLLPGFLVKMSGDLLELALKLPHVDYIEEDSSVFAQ
T2 sequence (A8T644 other isoform, or with tags, fused parts or gaps, chain 2 of 2): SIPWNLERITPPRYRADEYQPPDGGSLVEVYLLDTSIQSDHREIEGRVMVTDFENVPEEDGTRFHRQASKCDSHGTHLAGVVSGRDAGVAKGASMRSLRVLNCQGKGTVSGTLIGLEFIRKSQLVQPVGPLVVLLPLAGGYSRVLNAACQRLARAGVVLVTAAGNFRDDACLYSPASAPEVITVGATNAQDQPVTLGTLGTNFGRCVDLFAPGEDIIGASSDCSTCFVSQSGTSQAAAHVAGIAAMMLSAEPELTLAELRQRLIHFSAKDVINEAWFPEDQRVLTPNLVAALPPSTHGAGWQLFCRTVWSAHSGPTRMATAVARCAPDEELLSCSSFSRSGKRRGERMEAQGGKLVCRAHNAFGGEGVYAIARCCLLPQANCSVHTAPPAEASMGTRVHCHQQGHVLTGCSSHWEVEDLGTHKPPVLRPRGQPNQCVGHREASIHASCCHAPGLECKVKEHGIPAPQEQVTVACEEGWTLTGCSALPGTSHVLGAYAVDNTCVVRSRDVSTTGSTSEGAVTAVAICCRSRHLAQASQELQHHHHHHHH
Protocol: (§1) Signal generation in the PCSK9 binding assays was dependent upon the binding interaction to bring into close proximity the His-tag on the PCSK9 and the Fc-tag on the ligand. Anti-His-APC was bound to the His-tag, and anti-Fc-europium was bound to the Fc-tag.
(§2) Compounds were solubilized and dilutions were prepared in DMSO. […] The plate was centrifuged to mix the well contents and allowed to incubate for 30 min. […] The normalized TR-FRET ratios were plotted as a function of the compound concentrations, and the IC₅₀ values were determined using a 4-parameter logistic regression.

[3] = target: T3, PCSK9Δhelix (human PCSK9 lacking the P' helix, His-tagged) (human, UniProt Q8NBP7 31-152; Q8NBP7 168-692); experiment: TR-FRET competition; His-PCSK9Δhelix with Ab20 as competitor ligand
T3 construct: Construct M1-Q692 with an engineered TEV site (Y166 and R167 deleted, ENLYFQS inserted between R165 and A168); also called His-PCSK9Δhelix; C-terminal (His)8-tagged PCSK9Δhelix
T3 sequence (Q8NBP7 31-152, stated change not applied, chain 1 of 2): as the sequence (A8T644 31-152, chain 1 of 2) above
T3 sequence (Q8NBP7 other isoform, or with tags, fused parts or gaps mutant, chain 2 of 2): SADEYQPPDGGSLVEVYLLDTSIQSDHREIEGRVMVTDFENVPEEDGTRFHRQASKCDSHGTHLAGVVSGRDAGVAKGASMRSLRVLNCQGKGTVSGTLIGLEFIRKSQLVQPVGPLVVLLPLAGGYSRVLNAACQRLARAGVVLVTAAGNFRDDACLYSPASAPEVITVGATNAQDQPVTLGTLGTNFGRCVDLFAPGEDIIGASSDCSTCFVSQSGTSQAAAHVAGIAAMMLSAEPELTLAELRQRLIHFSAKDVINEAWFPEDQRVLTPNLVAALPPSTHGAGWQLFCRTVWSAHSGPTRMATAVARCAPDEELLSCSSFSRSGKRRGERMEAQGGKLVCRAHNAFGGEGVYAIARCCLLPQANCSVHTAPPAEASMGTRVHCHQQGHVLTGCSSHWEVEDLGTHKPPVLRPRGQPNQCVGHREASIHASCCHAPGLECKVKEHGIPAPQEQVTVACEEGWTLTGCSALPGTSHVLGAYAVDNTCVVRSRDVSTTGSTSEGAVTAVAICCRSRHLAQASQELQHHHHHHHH
Protocol: as §1, §2

fold lower inhibitory activity against Compound 229 [1] [fold] | IC50 [2] [µM] | IC50 [3] [µM] | Binder
~3 |  |  | Ac-ESFPGWNLV[hArg]IGLLR-NH2 (SMILES CC[C@H](C)[C@H](NC(=O)[C@H](CCCCNC(=N)N)NC(=O)[C@@H](NC(=O)[C@H](CC(C)C)NC(=O)[C@H](CC(N)=O)NC(=O)[C@H](Cc1c[nH]c2ccccc12)NC(=O)CNC(=O)[C@@H]1CCCN1C(=O)[C@H](Cc1ccccc1)NC(=O)[C@H](CO)NC(=O)[C@H](CCC(=O)O)NC(C)=O)C(C)C)C(=O)NCC(=O)N[C@@H](CC(C)C)C(=O)N[C@@H](CC(C)C)C(=O)N[C@@H](CCCNC(=N)N)C(N)=O) [Compound 227]
 | ≥ 50 | 31 | Ac-SGCFI[Hyp′]WNLQRIGLLC-NH2 (disulfide 3-16 (inferred), Has two Cys (positions 3 and 16)) [Compound 242: Ac-SG-CFI(Hyp)WNLQRIGLLC-NH2]
